{
  "source": "patent US20060150259A1",
  "about": "“Model of bone disease amenable to high-throughput screening” (priority 2003, published 2006)",
  "molecules": {"B1": {"name": "parathyroid hormone (peptide, UniProt P01270 32-115, looked up)", "Parathyroid hormone": "SVSEIQLMHNLGKHLNSMERVEWLRKKLQDVHNFVALGAPLAPRDAGSQRPRKKEDNVLVESHEKSLGEADKADVNVLTKAKSQ", "modifications": "Parathyroid hormone", "notes": "parathyroid hormone (PTH) (Sigma)"}},
  "key": {"[1]": {"test_system": "zebrafish larvae (bone formation)", "assay": "Anabolic bone screen in zebrafish larvae", "type": "in vivo", "conditions": "for anabolic effects (promoting bone), dose/response: 3 d.p.f. to 8 d.p.f., range of concentrations", "description": "A 1 mg/ml stock of parathyroid hormone (PTH) (Sigma) was made in 20 mM NaH2PO4 and 2.13g/L mannitol. A […] stock of cholecalciferol (Vitamin D)(Sigma) was made in dH2O. […]\n(§1) Embryos and larvae were fixed in 4% paraformaldehyde (PFA), then labelled with alizarin red as described herein. In vivo labelling was achieved by rearing fish in 0.05% alizarin red in embryo medium.\n(§2) Stained larvae were mounted on depression slides and visualised by fluorescence microscopy on a BX51 microscope (Olympus) and images were captured using a ColorView camera and AnalySis software (Olympus). The intensity of and area of alizarin red fluorescence was quantified for each treatment group, with a minimum of 5 samples per group, using colour threshold and area measurements in AnalySis (Olympus). Mean values and standard deviations were calculated using Excel software (Microsoft Office).\nIn addition to screening for the rescue of osteoporosis, we observed that anabolic bone effects could also be detected."}, "zebrafish": {"test_system": "zebrafish", "assay": "DMSO tolerance of zebrafish", "type": "in vivo", "conditions": "added to the fish water", "description": "Moreover, the inventors have discovered that zebrafish are also DMSO (dimethyl sulphoxide) tolerant. This is important as DMSO is used as a solvent to dissolve many drugs. The inventors have established that zebrafish can tolerate 1% DMSO. Thus, a candidate drug or other test substance may be dissolved in DMSO and administered to zebrafish by adding to the fish water to give a final concentration of DMSO of at least up to 1%. This is employed in various preferred aspects and embodiments of the present invention."}, "zebrafish larvae": {"test_system": "zebrafish larvae", "assay": "Toxicity / viability of zebrafish larvae in embryo medium containing compound", "quoted_text": "For compound screening, a dose of 10 ug/ml prednisolone may be used, although other doses and durations of exposure may also be used."}, "[2]": {"test_system": "zebrafish larvae with prednisolone-induced osteoporosis", "assay": "Rescue of prednisolone-induced osteoporosis with etidronate in zebrafish larvae", "type": "in vivo", "description": "1) Osteoporosis was induced with prednisolone as described above.\n2) Etidronic acid (Sigma H6773) was made up as […] stock in embryo medium.\n3) Osteoporosis was rescued by co-administration of etidronic acid and prednisolone from 3 d.p.f. to 10 d.p.f.\nA 10 mg/ml stock solution of etidronate (Sigma) in embryo medium was used in all prednisolone rescue experiments. The pH of the solution was adjusted to pH 7.5 using NaOH. The stock was stored at 4° C. for a maximum of 2 months. […]. OP was induced by exposure of larvae to 10 ug/ml prednisolone from 3 d.p.f. to 6 d.p.f. At 6 d.p.f., medium containing 10 ug/ml prednisolone was removed and replaced with 10 ug/ml prednisolone in combination with etidronate.\nas §1, §2\nA dose/response study was performed using larvae exposed to varying doses of etidronate in the presence of prednisolone (at 10 ug/ml) from 3 d.p.f. to 9 d.p.f. Samples were stained with alizarin red and the area of stained tissue was quantified using AnalySis software. The average stained area was calculated from five samples at each concentration and plotted as a mineralization index."}},
  "note": "“Also recorded” adds a separate entry of the source.",
  "data": [
    {"molecule": "C=C1CC[C@H](O)C/C1=C/C=C1\\CCC[C@]2(C)[C@@H]([C@H](C)CCCC(C)C)CC[C@@H]12", "note": "[Cholecalciferol, cholecalciferol, reference compound]", "values": [
      {"measurement": "anabolic effects (promoting bone), dose/response", "setting": "[1]", "value": "clear dose/response in relation to promoting bone"}
    ]},
    {"molecule": "C[S+](C)[O-]", "note": "[DMSO, dimethyl sulphoxide]", "values": [
      {"measurement": "DMSO concentration tolerated by zebrafish", "setting": "zebrafish", "value": 1, "unit": "%"}
    ]},
    {"molecule": "CC(O)(P(=O)(O)O)P(=O)(O)O", "note": "[etidronate, Etidronic acid]", "values": [
      {"measurement": "viability of larvae", "setting": "zebrafish larvae; 5 ug/mi etidronic acid co-administered with 10 ug/ml prednisolone", "value": "viable beyond 10 d.p.f."},
      {"measurement": "viability of larvae", "setting": "zebrafish larvae; 10 ug/ml etidronate co-administered with 10 ug/ml prednisolone", "value": "viable beyond 10 d.p.f."},
      {"measurement": "rescue of OP phenotype in wholemount skeletal preparations (amount of staining)", "setting": "[2]; etidronate 10 ug/ml with prednisolone 10 ug/ml", "value": "rescue is readily observed; also recorded: clear increase in the amount of staining"},
      {"measurement": "dose/response, fluorescence intensity in stained bones in vivo", "setting": "[2]; increasing doses of etidronate in the presence of prednisolone", "value": "correlated with recovery from OP"},
      {"measurement": "dose/response, area of stained tissue (mineralization index)", "setting": "[2]; varying doses of etidronate with prednisolone 10 ug/ml, 3 d.p.f. to 9 d.p.f.", "value": "clear correlation between increasing doses of etidronate and rescue of the OP phenotype"}
    ]},
    {"molecule": "B1", "values": [
      {"measurement": "Summary of effects", "setting": "[1]; 40 ng/ml, Continuous, 3 d.p.f. to 8 d.p.f", "value": "Anabolic effect"},
      {"measurement": "Summary of effects", "setting": "[1]; 100 ng/ml, Continuous, 3 d.p.f. to 8 d.p.f", "value": "Mild catabolic"},
      {"measurement": "Summary of effects", "setting": "[1]; 200 ng/ml, Brief, 6 hours on 5 d.p.f, effects noted on 8 d.p.f.", "value": "Strong anabolic"},
      {"measurement": "Summary of effects", "setting": "[1]; 200 ng/ml, Continuous, 3 d.p.f. to 8 d.p.f", "value": "Strong catabolic"},
      {"measurement": "effect on bone", "setting": "[1]; 200 ng/ml, administered for 6-8 hours and then removed from the medium", "value": "anabolic effect"},
      {"measurement": "effect on bone", "setting": "[1]; 206 ng/ml, administered continuously from 3 d.p.f to 9 d.p.f.", "value": "catabolic effect"},
      {"measurement": "anabolic effects (promoting bone), dose/response", "setting": "[1]", "value": "clear dose/response in relation to promoting bone"},
      {"measurement": "effect on bone", "setting": "[1]; doses up to 100 ng/ml, administered continuously from 3 d.p.f to 9 d.p.f.", "value": "anabolic effect"}
    ]}
  ]
}
